The source of these data is PMC7432041, “[…], Artificial Tetrameric Lectins: A Tool to Screen Ligand and Pathogen Interactions” (International Journal of Molecular Sciences, 2020).

Test in all cases: SEC-MALS; SEC-LS (static and dynamic light scattering, refractive index, absorbance at 280 and 550 nm); Shodex KW 802.5 column at 4 °C, 25 mM Tris pH 7.5, 150 mM NaCl, 4 mM CaCl2, 0.5 mL/min; 50 µL injected
In general terms: In gel filtration, larger molecules generally elute earlier.

Data set [1] addresses DC-SIGNR Fc-CRD (fusion of the DC-SIGNR CRD with human IgG1 Fc) (human).
Data set [2] deals with the molecule itself.
In data set [3] the target is T1, Cy3-NeutrAvidin (UniProt P02701 25-152, Cy3 (Cy3-NHS ester, degree of labelling 0.5)).
T1 construct: NeutrAvidin, a deglycosylated tetrameric protein derived from avidin; subunit MW = 14.5 kDa as printed; Deglycosylated avidin; also called NeutrAvidin-Cy3; tetrameric NeutrAvidin; source: bought: ThermoFisher Scientific; labelled with Cy3-NHS ester
T1 sequence (P02701 25-152): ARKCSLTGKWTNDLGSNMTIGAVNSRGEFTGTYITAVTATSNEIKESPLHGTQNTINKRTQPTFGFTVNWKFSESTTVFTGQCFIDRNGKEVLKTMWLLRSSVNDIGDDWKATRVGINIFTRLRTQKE
Particulars: both partners purified.

One may read the stoichiometry N as the number of molecules, sites or subunits per partner or assembly. As to “DC-SIGNR Fc-CRD (fusion of the DC-SIGNR CRD with human IgG1 Fc) (Fc fusion)”, the stoichiometry N in data set [1] amounted to 2.

B1: DC-SIGNR ECD (natural extracellular domain of human DC-SIGNR) (domain or fragment, UniProt Q9H2X3 78-399, looked up)
chain: SLSQEQSEQDAIYQNLTQLKAAVGELSEKSKLQEIYQELTQLKAAVGELPEKSKLQEIYQELTRLKAAVGELPEKSKLQEIYQELTRLKAAVGELPEKSKLQEIYQELTRLKAAVGELPEKSKLQEIYQELTELKAAVGELPEKSKLQEIYQELTQLKAAVGELPDQSKQQQIYQELTDLKTAFERLCRHCPKDWTFFQGNCYFMSNSQRNWHDSVTACQEVRAQLVVIKTAEEQNFLQLQTSRSNRFSWMGLSDLNQEGTWQWVDGSPLSPSFQRYWNSGEPNNSGNEDCAEFSGSGWNDNRCDVDNYWICKKPAACFRDE
notes: DC-SIGNR (L-SIGN), human, extracellular domain, amino acids 78 to 399; optimized synthetic gene in pET30-b between NdeI and HindIII; also called natural tetrameric DC-SIGNR ECD; L-SIGN ECD
As to B1, the “stoichiometry N” value in data set [2] is 4.

B2: Biotin sortagged DC-SIGNR-CRD (biotin-LPRT-GGG-DC-SIGNR CRD) (domain or fragment, human)
chain: LPRTGGGLCRHCPKDWTFFQGNCYFMSNSQRNWHDSVTACQEVRAQLVVIKTAEEQNFLQLQTSRSNRFSWMGLSDLNQEGTWQWVDGSPLSPSFQRYWNSGEPNNSGNEDCAEFSGSGWNDNRCDVDNYWICKKPAACFRDE
modifications: biotin on the N-terminus (biotin-LPRT peptide joined by sortase A)
notes: sortase A motif of the biotin-LPRT-OMe peptide, transferred onto the N-terminal glycines; poly-Gly extension at the N-terminus of the CRD, exposed after factor Xa cleavage; DC-SIGNR (L-SIGN), human, CRD, amino acids 264 to 399; optimized synthetic gene in pET30-b between XbaI and HindIII; Theoretical mass 16.5 kDa (ESI-MS 16,556); also called biotin-CRD; biotinylated DC-SIGNR CRD; source: …
Consider B2, for which the “stoichiometry N” value in data set [3] was 4 biotin-CRD per NeutrAvidin tetramer (4:4 by chains).
